Experimental data published in patent publication US20240228612A1 (SICHUAN KELUN BIOTECH BIOPHARMACEUTICAL, published 2024).

Experiments:
[1] = target: T1, human Nectin-4 on cell membrane surface (human, UniProt Q96NY8 32-510); experiment: flow cytometry on NCI-N87 cells
T1 construct: whole, on cells; also called A549-Nectin-4; T24-Nectin-4
T1 sequence (looked up): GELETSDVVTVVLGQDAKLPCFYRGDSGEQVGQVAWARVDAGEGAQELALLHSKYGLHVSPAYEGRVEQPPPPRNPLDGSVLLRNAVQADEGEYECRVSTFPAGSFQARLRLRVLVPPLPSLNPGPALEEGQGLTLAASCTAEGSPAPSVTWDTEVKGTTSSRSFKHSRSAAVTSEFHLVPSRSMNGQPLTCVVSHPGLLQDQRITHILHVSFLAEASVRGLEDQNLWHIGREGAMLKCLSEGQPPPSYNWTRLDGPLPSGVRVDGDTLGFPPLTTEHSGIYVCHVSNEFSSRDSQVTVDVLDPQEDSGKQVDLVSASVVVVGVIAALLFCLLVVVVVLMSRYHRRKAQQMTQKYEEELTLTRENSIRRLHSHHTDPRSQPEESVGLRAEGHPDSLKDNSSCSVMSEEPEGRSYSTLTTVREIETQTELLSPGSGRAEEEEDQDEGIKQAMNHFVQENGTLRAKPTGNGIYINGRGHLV

human Nectin-4 protein = target: T2, human Nectin-4 protein (human, UniProt Q96NY8 32-349); experiment: ELISA, coated human Nectin-4, anti-human-HRP
T2 construct: Purified protein used for coating in ELISA and as analyte in Octet; also called human Nectin-4 antigen
T2 sequence (looked up): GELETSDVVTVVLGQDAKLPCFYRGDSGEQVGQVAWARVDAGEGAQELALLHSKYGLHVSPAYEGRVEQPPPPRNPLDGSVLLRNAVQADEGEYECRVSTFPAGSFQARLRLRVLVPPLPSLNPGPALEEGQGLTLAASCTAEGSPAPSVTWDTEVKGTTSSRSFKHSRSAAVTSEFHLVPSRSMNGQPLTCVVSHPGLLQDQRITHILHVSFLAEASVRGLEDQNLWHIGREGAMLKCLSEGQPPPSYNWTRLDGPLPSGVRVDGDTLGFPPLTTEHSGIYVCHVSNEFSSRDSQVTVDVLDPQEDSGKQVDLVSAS
Excerpt: The Nectin family includes members of Nectin-1, Nectin-2, Nectin-3 and Nectin-4, and the members share a sequence identity of about 25%, but have similar structure and function. […]

- EC50 [1]: 0.0164 µg/mL
- EC50 (read off the curve) (human Nectin-4 protein): ~0.006 µg/mL
B1: anti-human Nectin-4 humanized monoclonal antibody 56HZ (antibody, human IgG1, kappa, V domains shown)
VH: QVQLQESGPGLVKPSQTLSLTCTVSGYFNSITSDYDWHWIRHHPGKGLEWMGYISFSGRTYYNPSLKSRVTISHDTSKNQFSLKLSSVTAADTAVYYCARGNYDGFDYWGQGTLVTVSS
VL: DIVLTQSPATLSLSPGERATLSCRASQNIGTSIHWYQHKPGQSPRLLIKFASESISGIPARFSGSGSGTDFTLTISSLEPEDFAVYYCQQSKSWPTYTFGGGTKVEIKR
notes: Human IgG1 heavy chain constant region, human kappa light chain constant region; expressed in CHO-E cells
